Reference: paper PMC9201380, “Structural Characterization of a Neutralizing Nanobody With Broad Activity Against SARS-CoV-2 Variants” (Frontiers in Microbiology, 2022)

Target: SARS-CoV-2 S receptor-binding domain (residues 330-531), Avi-tagged and biotinylated (SARS-CoV-2, UniProt P0DTC2)
Assay: BLI; Octet RED96; biotinylated RBD (2 μg mL^-1) immobilized on SA sensor; DL28 as analyte at 2, 5, 10 and 20 nM; 30°C; 1x PBS, 0.05% Tween 20; association 360 s, dissociation 600 s; 1:1 fit
Details: both partners purified

B1: DL28 (monovalent nanobody) (VHH)
VHH: QVQLQESGGGLVQAGGSLRLSCAASGSDFSSSTMGWYRQAPGKQREFVAISSEGSTSYAGSVKGRFTISRDNAKNTVYLQMNSLEPEDTAVYYCNVVDRWYDYWGQGTQVTVSA
notes: also called monovalent DL28
Work on B1 yielded a Kd of 1.56 nM.
